Consider 4 molecules from patent US20190359693A1 (Janssen / Centocor, published 2019).

Like-named read-outs stand apart in the source and are kept apart here.

In assay [1] the target is T1, HA of H3N2 A/HK/1/68 (influenza A virus, UniProt Q91MA7 17-530). As to the kind of experiment: BLI (Octet).
Assay [2] deals with HA of H5N1 A/Vietnam/1194/04 (influenza A virus). In words: cell-based or functional assay.
For assay [3], the target named is HA of H3N2 A/Brisbane/10/2007 (influenza A virus). As to the kind of experiment: cell-based or functional assay.
Assay [4] has as its target HA of H3N2 A/HK/1/68-MA (influenza A virus). As to the kind of experiment: cell-based or functional assay.
Assay [5] concerns the target HA of H3N2 A/Panama/2007/99 (influenza A virus). In words: cell-based or functional assay.
Assay [6] has as its target HA of H4 A/WF/HK/MPA892/06 (influenza A virus). As to the kind of experiment: cell-based or functional assay.
The target of assay [7] is HA of H7N7 A/PR8 H7N7-NY (influenza A virus). As to the kind of experiment: cell-based or functional assay.
For assay [8], the target named is HA of H10N7 A/Chick/Germany/N/49 (influenza A virus). In words: cell-based or functional assay.
In assay [9] the target is T1, HA of H3N2 A/HK/1/68. In words: BLI steady state.
The target of assay [10] is HA of H7N7 A/Common Teal/MPF139/07 (influenza A virus). In words: cell-based or functional assay.
The target of another assay is HA of H7N9 A/Anhui/1/13 (influenza A virus). As to the kind of experiment: cell-based or functional assay.
Assay [11] concerns the target HA of H7N9 A/Shanghai/1/13 (influenza A virus). As to the kind of experiment: cell-based or functional assay.
Assay [12] deals with HA of H7N9 A/Shanghai/2/13 (influenza A virus). As to the kind of experiment: cell-based or functional assay.
The target of assay [13] is HA of H10N8 A/Jiangxi/346/2013 (influenza A virus). As to the kind of experiment: cell-based or functional assay.
Assay [14] has as its target HA of H10N3 A/Common Teal/MPH11/08 (influenza A virus). In words: cell-based or functional assay.
For assay [15], the target named is HA of H10N9 A/Northern Shoveler/MPE2531/08 (influenza A virus). As to the kind of experiment: cell-based or functional assay.
The target of assay [16] is HA of H1N1 A/Puerto Rico/8/34-MA (influenza A virus). In words: cell-based or functional assay.
In assay [17] the target is HA of H5N1 A/PR8 H5N1 HK97 (influenza A virus). As to the kind of experiment: cell-based or functional assay.
Assay [18] deals with HA of H3N2 A/HK/1/68-MA (influenza A virus). In words: cell-based or functional assay. This is another data set of the same source.
The target in assay [19] is T1, HA of H3N2 A/HK/1/68. As to the kind of experiment: cell-based or functional assay.
In assay [20] the target is T2, HA of H7N7 A/Netherlands/219/2003 (influenza A virus, UniProt P36346 19-563). In words: cell-based or functional assay.
Assay [21] addresses HA of H2N2 A/Guiyang/1/57 (influenza A virus). In words: cell-based or functional assay.
Assay [22] has as its target HA of H3N2 A/Panama/2007/99 (influenza A virus). In words: cell-based or functional assay. The source holds these as a separate data set.
For assay [23], the target named is HA of H4 A/WF/HK/MPA892/06 (influenza A virus). As to the kind of experiment: cell-based or functional assay. The source holds these as a separate data set.
The target in assay [24] is HA of H7N7 A/PR8 H7N7-NY (influenza A virus). In words: cell-based or functional assay. This is another data set of the same source.
Assay [25] addresses HA of H10N7 A/Chick/Germany/N/49 (influenza A virus). In words: cell-based or functional assay. The source holds these as a separate data set.
Assay [26] has as its target HA of H1N1 A/Mississippi/03/01 274H (influenza A virus). In words: cell-based or functional assay.
The target in assay [27] is HA of H1N1 A/Solomon Islands/3/2006 (IVR 145) (influenza A virus). In words: cell-based or functional assay.
The target of a further assay is HA of H1N1 A/WSN/33 (influenza A virus, UniProt P03454 18-565). As to the kind of experiment: cell-based or functional assay.
For a further assay, the target named is HA of H1N1 A/HK/54/98 (influenza A virus). As to the kind of experiment: cell-based or functional assay.
For assay [28], the target named is HA of H1N1 A/Christchurch/16/10 (influenza A virus). As to the kind of experiment: cell-based or functional assay.
Assay [29] deals with HA of H1N2 A/Env/HK/MPU3156/05 (influenza A virus). In words: cell-based or functional assay.
Assay [30] addresses HA of H5N1 A/Indonesia/5/05 (influenza A virus). As to the kind of experiment: cell-based or functional assay.
Assay [31] has as its target HA of H5N2 A/Eurasian Wigeon/MPF461/07 (influenza A virus). In words: cell-based or functional assay.
The target of assay [32] is HA of H5N2 A/Eurasian Wigeon/HK/MPF333/07 (influenza A virus). In words: cell-based or functional assay.
Assay [33] deals with HA of H2N2 A/AnnArbor/23/57 (influenza A virus). As to the kind of experiment: cell-based or functional assay.
The target in assay [34] is HA of H2N2 A/Env/HK/MPU3156/05 (influenza A virus). As to the kind of experiment: cell-based or functional assay.
In assay [35] the target is HA of H6N1 A/Eurasian Wigeon/MPG1884/09 (influenza A virus). In words: cell-based or functional assay.
Assay [36] concerns the target HA of H6N1 A/Taiwan/2/2013 (influenza A virus). As to the kind of experiment: cell-based or functional assay.
The target in assay [37] is HA of H6N8 A/Eurasian Wigeon/MPD411/07 (influenza A virus). In words: cell-based or functional assay.
In assay [38] the target is HA of H11N9 A/Northern Pintail/MPC2085/07 (influenza A virus). As to the kind of experiment: cell-based or functional assay.
Assay [39] addresses HA of H9N2 A/Ck/HK/SSP176/09 (influenza A virus). As to the kind of experiment: cell-based or functional assay.
Assay [40] deals with HA of H9N2 A/Great Cormorant/MP2934/04 (influenza A virus). In words: cell-based or functional assay.
Assay [41] has as its target HA of H9N2 A/HK/466419/09 (influenza A virus). As to the kind of experiment: cell-based or functional assay.
The target of assay [42] is HA of H8N4 A/Eurasian Wigeon/MPH571/08 (influenza A virus). As to the kind of experiment: cell-based or functional assay.
For assay [43], the target named is HA of H8N2 A/Env/MPJ1258/09 (influenza A virus). In words: cell-based or functional assay.
The target of assay [44] is HA of H12N5 A/Env/MPK659/09 (influenza A virus). In words: cell-based or functional assay.
In another assay the target is HA of H3N2 A/Fukui/45/04 (influenza A virus). As to the kind of experiment: cell-based or functional assay.
For another assay, the target named is HA of H3N2 A/Aichi/2/68 (influenza A virus, UniProt P03437 17-566). In words: cell-based or functional assay.
Assay [45] concerns the target HA of H3N2 A/Hiroshima/52/05 (influenza A virus). As to the kind of experiment: cell-based or functional assay.
For assay [46], the target named is HA of H3N2 A/Johannesburg/33/94 (influenza A virus). As to the kind of experiment: cell-based or functional assay.
The target in the next assay is HA of H3N2 A/Perth/16/09 (influenza A virus). In words: cell-based or functional assay.
For assay [47], the target named is HA of H3N2 A/Victoria/210/09 (influenza A virus). In words: cell-based or functional assay.
A further assay has as its target HA of H3N2 A/HK/1174/99 (influenza A virus). As to the kind of experiment: cell-based or functional assay.
For assay [48], the target named is HA of H4N1 A/Northern Pintail/MPB1368/06 (influenza A virus). In words: cell-based or functional assay.
Assay [49] has as its target HA of H4N6 A/Great Cormorant/MPB1683/06 (influenza A virus). In words: cell-based or functional assay.
Assay [50] concerns the target HA of H14N5 A/Mallard/Astrakhan/263/1982 (influenza A virus). As to the kind of experiment: cell-based or functional assay.
Assay [51] addresses HA of H7N7 A/Northern Shoveler/MPF518/08 (influenza A virus). As to the kind of experiment: cell-based or functional assay.
In assay [52] the target is T2, HA of H7N7 A/Netherlands/219/2003. As to the kind of experiment: AlphaLISA competition vs CR9114. For orientation: In Alpha technology, singlet oxygen from a donor bead excites a nearby acceptor bead.
The target in assay [53] is HA of H1N1 A/Brisbane/59/07 (influenza A virus). In words: cell-based or functional assay.

B1: SD1035 (VHH)
VHH: EVQLVESGGGLVQAGGTLRLSCAASGSAVSISRMAWYRQAPGKQRELVADIFSGGGTNYADSVKGRFTISRDNAKNTVDLQMNSLKPEDTAVYYCSARSAVAAIHWDQYDYWGQGTQVTVSS
notes: llama sdAb
Turning to B1, the binding result in the assay with HA of H3N2 A/HK/1/68 [1] was “no binding (tested: HA 20 µg/mL)”. The VNA titer in assay [2] and in assay [3] was > 1000 nM throughout.

B2: SD1016 (VHH)
VHH: EVQLVESGGGLVQAGGSLRLSCVASGMFFGIAAMGWYRQAPGKQRELVANITSDFSTNYADSVKDRFTISRDNAENTVYLQMNSLKPEDTAVYYCAADSLGTGWRHYYYWGQGTQVTVSS
notes: llama sdAb
As for B2, the binding result in the assay with HA of H3N2 A/HK/1/68 [1] is “no binding (tested: HA 20 µg/mL)”. For the same molecule, the VNA titer (in the assay with HA of H3N2 A/HK/1/68-MA [4]; in [5]; in assay [6]; with HA of H7N7 A/PR8 H7N7-NY [7]; in [8]) was > 1000 nM in each case.

B3: SD1036 (VHH)
VHH: EVQLVESGGGLVQAGGSLKLSCAASGRTYAMGWFRQAPGKEREFVAHINALGTRTYYSDSVKGRFTISRDNAKNTEYLEMNNLKPEDTAVYYCTAQGQWRAAPVAVAAEYEFWGQGTQVTVSS
notes: llama sdAb
For B3, the Kd (in general, the constant that tells how readily two partners part at equilibrium) with HA of H3N2 A/HK/1/68 [9] stood at 2 nM. Moreover, the VNA titer in assay [10] was found to be 18.3 nM; with HA of H7N9 A/Anhui/1/13, 65.9 nM; in assay [11] it was 101 nM; in assay [12] it was 33 nM; in [13], 83.9 nM; in assay [14], 28.9 nM. The VNA titer in assay [15] was 19.9 nM; in assay [16], > 1000 nM; in assay [17], > 1000 nM; in the assay with HA of H3N2 A/HK/1/68-MA [18], 73.2 nM; in the assay with HA of H3N2 A/HK/1/68 [19] it was 115 nM; in assay [20], 28.9 nM. The VNA titer in assay [21] is > 1000 nM; in assay [22], > 1000 nM; in [23] it was 40.4 nM; with HA of H7N7 A/PR8 H7N7-NY [24], 8.8 nM; in [25], 22.2 nM; in [26] it was > 1000 nM. Also, the VNA titer (in assay [27]; with HA of H1N1 A/WSN/33; with HA of H1N1 A/HK/54/98; in assay [28]; in assay [29]; in assay [30]) was > 1000 nM in each case. Moreover, the VNA titer in assay [31], in assay [32], in assay [33], in assay [34], in assay [35] and in [36] was > 1000 nM each time. Moreover, the VNA titer in [37] was > 1000 nM; in assay [38], > 1000 nM; in assay [39] it was > 1000 nM; in [40], 677 nM; in assay [41] it was > 1000 nM; in assay [42], > 1000 nM. The VNA titer was > 1000 nM in [43]; > 1000 nM in assay [44]; > 1000 nM in the assay with HA of H3N2 A/Fukui/45/04; 6.5 nM with HA of H3N2 A/Aichi/2/68; > 1000 nM in assay [45]; 601 nM in assay [46]. For the same molecule, the VNA titer with HA of H3N2 A/Perth/16/09 was 76.4 nM; in assay [47] it was 540 nM; with HA of H3N2 A/HK/1174/99 it was > 1000 nM; in assay [48], 80.7 nM; in assay [49], 44.5 nM; in assay [50], 16.2 nM. In [51], this molecule displayed a VNA titer of 44.7 nM. In assay [52], the pIC50 (usually the negative decadic logarithm of the IC50, by convention in mol/L) is 9.3.

B4: SD1047 (VHH)
VHH: EVQLVESGGGLVQAGGSLRISCAASGRTYAMAWFRQAPGKEREFVAHINALGTRTYYSDSVKDRFTISRDNAKNTEYLQMNSLKPEDTAVYYCVAGGQWRAAPVAAAESYDFWGQGTQVTVSS
Regarding B4, the VNA titer (in assay [16]; with HA of H3N2 A/HK/1/68-MA [18]; in assay [53]) was > 1000 nM each time.
